Laboratory results reported in US11618906B2, “Hydroxylation techniques” (HYPHA DISCOVERY LTD., priority 2018, dated 2023).

Assays:
Format in all cases: biochemical
[1] = Metabolism of celecoxib by P450 aluC09 and mutants; details: percent of substrate being converted; 0.125 mg/ml, 27° C., 16-20 hours; [CYP] per enzyme as in Table 8
Summary of the method: (§1)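 Lyophilised P450 aluC09 mutants with ferredoxin aluF03 and ferredoxin reductase SCF15A were incubated with 0.125 mg/ml substrate in 50 mM potassium phosphate pH 7.4, 5 mM MgCl2, at 27° C. NADPH was regenerated by 5 mM G6P, 1 mM NADP and 2 UN/ml G6PDH. Conversion was measured by UPLC-MS after 16-20 hours.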

[2] = Metabolism of tofacitinib by P450 aluC09 and mutants; details: percent of substrate being converted; 0.125 mg/ml, 27° C., 16-20 hours; [CYP] per enzyme as in Table 8
Summary of the method: as §1

[3] = Metabolism of BIRB796 by P450 aluC09 and mutants; details: percent of substrate being converted; 0.125 mg/ml, 27° C., 16-20 hours; [CYP] per enzyme as in Table 8
Summary of the method: as §1

[4] = Metabolism of buparvaquone by P450 aluC09 and mutants; details: percent of substrate being converted; 0.125 mg/ml, 27° C., 16-20 hours; [CYP] per enzyme as in Table 8
Summary of the method: as §1

[5] = Metabolism of ritonavir by P450 aluC09 and mutants; details: percent of substrate being converted; 0.125 mg/ml, 27° C., 16-20 hours; [CYP] per enzyme as in Table 8
Summary of the method: as §1

[6] = O-demethylation of indomethacin catalysed by cytochrome P450 aluC09 and mutants; details: % by UV peak area at 275 nm; 0.125 mg/ml substrate, 27° C., 16-20 hours
Summary of the method: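 Lyophilised CYP450aluC09 mutants with ferredoxin aluF03 and reductase SCF15A, 0.125 mg/ml substrate, 50 mM potassium phosphate pH 7.4, 5 mM MgCl2, G6P/G6PDH/NADP recycling. Shaken 16-20 h at 27° C. Acetonitrile-quenched, conversion measured by UPLC-MS.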

[7] = Metabolism of valsartan by P450 aluC09 and mutants; details: percent of substrate being converted; 0.125 mg/ml, 27° C., 16-20 hours; [CYP] per enzyme as in Table 8
Summary of the method: as §1

[8] = Hydroxylation of aceclofenac catalysed by cytochrome P450 aluC09 and mutants
Summary of the method: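 Conversion was assessed by UPLC-MS (UV and MS detection) after acetonitrile extraction of reactions run 16-20 h at 27° C, shaking. Reactions contained substrate at 0.125 mg/ml, P450 mutant plus ferredoxin and reductase partners, 1 mM NADP with glucose-6-phosphate regeneration, in phosphate buffer pH 7.4.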

[9] = Hydroxylation of diclofenac catalysed by cytochrome P450 aluC09 and mutants (UPLC-PDA-MS)
Summary of the method: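 Lyophilised CYP450aluC09 or mutants, with ferredoxin aluF03 and reductase SCF15A, incubated 16-20 hours at 27° C with 0.125 mg/ml diclofenac in 50 mM potassium phosphate pH 7.4, 5 mM MgCl2, and G6P/NADP/G6PDH regeneration. Acetonitrile-extracted; conversion by UPLC-PDA-MS against authentic hydroxylated standards.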

[10] = Metabolism of ruxolitinib by P450 aluC09 and mutants; details: percent of substrate being converted; 0.125 mg/ml, 27° C., 16-20 hours; [CYP] per enzyme as in Table 8
Summary of the method: as §1

[11] = Metabolism of tivantinib by P450 aluC09 and mutants; details: percent of substrate being converted; 0.125 mg/ml, 27° C., 16-20 hours; [CYP] per enzyme as in Table 8
Summary of the method: as §1

[12] = Hydroxylation / de-N-ethylation of napropamide catalysed by cytochrome P450 aluC09 and mutants
Summary of the method: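 Conversion of napropamide (0.125 mg/ml) to hydroxylated and de-ethylated metabolites was measured by UPLC-MS after acetonitrile extraction. Reactions ran 16-20 h at 27° C in pH 7.4 potassium phosphate (50 mM) with 5 mM MgCl2, 1 mM NADP, 5 mM G6P and 2 UN/ml G6PDH. Enzymes were lyophilised P450 aluC09 variants, ferredoxin aluF03 and ferredoxin reductase SCF15A.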

[13] = Hydroxylation of flufenamic acid catalysed by cytochrome P450 aluC09 and mutants
Summary of the method: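 Lyophilised CYP450aluC09 mutants with ferredoxin aluF03 and reductase SCF15A, in 50 mM potassium phosphate pH 7.4, 5 mM MgCl2, 0.125 mg/ml flufenamic acid, G6P/NADP/G6PDH NADPH regeneration. Shaken 16-20 h at 27° C; acetonitrile-quenched, conversion to two hydroxy products by UPLC-MS.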

[14] = Metabolism of 4-pyrrolidylacetophenone by P450 aluC09 and mutants; details: percent of substrate being converted; 0.125 mg/ml, 27° C., 16-20 hours; [CYP] per enzyme as in Table 8
Summary of the method: as §1

[15] = Metabolism of epothilone B by P450 aluC09 and mutants; details: percent of substrate being converted; 0.125 mg/ml, 27° C., 16-20 hours; [CYP] per enzyme as in Table 8
Summary of the method: as §1

[16] = Metabolism of bosentan by P450 aluC09 and mutants; details: percent of substrate being converted; 0.125 mg/ml, 27° C., 16-20 hours; [CYP] per enzyme as in Table 8
Summary of the method: as §1

[17] = % by UV peak area at 275 nm, 0.125 mg/ml substrate, 27° C., 16-20 hours

B1: aluC09M36: cytochrome P450 aluC09 mutant T291F; amino acid sequence SEQ ID NO: 56 (protein, listed as Amycolatopsis lurida)
chain: MTDVEETTATLPLARKCPFSPPPEYERLRRESPVSRVGLPSGQTAWALTRLEDIREMLSSPHFSSDRQSPSFPLMVARQIRREDKPFRPSLIAMDPPEHSRARRDVVGEFTVKRMKALQPRIQQIVDEHLDALLAGPKPADLVQALSLPVPSLVICELLGVPYSDHEFFQSCSSRMLSREVTAEERMTAFEQLENYLDELVTKKEANATEDDLLGRQILKQRETGEADHGELVGLAFLLLIAGHETTANMISLGTVTLLENPDQLAKIKADPGKTLAAIEELLRVFTIAEFATSRFATADVEIGGTLIRAGEGVVGLSNAGNHDPDGFENPDTFDIERGARHHVAFGFGVHQCLGQNLARLELQIVFDTLFRRVPGLRIAVPVDELPFKHDSTIYGLHALPVTW
% conversions (avg) Celecoxib [1]: 5.7% | % conversions (avg) Tofacitinib [2]: 2.4% | % conversions (avg) BIRB796 [3]: 20% | % conversions (avg) Buparvaquone [4]: 9.5% | % conversions (avg) Ritonavir [5]: 73.8% | Indomethacin (1.74 mins) [6]: 80.3% | O-demethyl-Indomethacin (1.52 mins) [6]: 19.7% | % conversions (avg) Valsartan [7]: 45.7% | Aceclofenac (Substrate) (1.80 mins) [8, 17]: 9.3% | Dihydroxy-Aceclofenac (1.42 mins) [8, 17]: 44.6% | Hydroxy-Aceclofenac (1) (1.64 min) [8, 17]: 7.2% | Hydroxy-Aceclofenac (2) (1.60 min) [8, 17]: 38.9% | Hydroxylated Ratio 2:1 ([8]; aceclofenac, ratio of UV peak areas at 275 nm): 5.4 | 4′,5-dihydroxy-diclofenac 1.38 mins [9, 17]: 3.6% | 4′-hydroxy-diclofenac (1) 1.62 mins [9, 17]: 42.8% | 5-hydroxy-diclofenac (2) 1.58 mins [9, 17]: 23.0% | Diclofenac (Substrate) 1.81 mins [9, 17]: 33.0% | Hydroxylated Ratio hydroxy 1:hydroxy 2 ([9]; diclofenac, ratio of UV peak areas at 275nm): 1.9 | % conversions (avg) Ruxolitinib [10]: 42.1% | % conversions (avg) Tivantinib [11]: 30.4% | Desethyl Napropamide (1.62 min) [12, 17]: 40.5% | Desethyl-hydroxy-Napropamide (1.41 min) [12, 17]: 3.1% | Hydroxy-Napropamide (1) (1.53 min) [12, 17]: 1.2% | Hydroxy-Napropamide (2), (1.52 min) [12, 17]: 3.5% | M-2Da (unidentified) (1.89 min) [12, 17]: 6.3% | Napropamide (substrate) [12, 17]: 46.8% | Hydroxylated Ratio 2:1 ([12]; napropamide, ratio of UV peak areas): 3.0 | Flufenamic Acid (Substrate) 1.93 mins [13, 17]: 89.8% | Hydroxy-Flufenamic Acid (1) 1.69 mins [13, 17]: 7.7% | Hydroxy-Flufenamic Acid (2) 1.65 mins [13, 17]: 2.6% | Hydroxylated Ratio 1:2 ([13]; flufenamic acid, ratio of UV peak areas at 275 nm): 3.0 | % conversions (avg) 4-pyrrolidylacetophenone [14]: 6.8% | % conversions (avg) Epothilone B [15]: 62.3% | % conversions (avg) Bosentan [16]: 99.5%
